1 molecule from publication doi:10.1101/625400, “Massively parallel reporter assays combined with cell-type specific eQTL informed multiple melanoma loci and identified a pleiotropic function of HIV-1 restriction gene, MX2, in melanoma promotion” can be followed below.

The data set has as its target YY1 full-length recombinant (Active Motif 31332) (UniProt P25490 1-414). The experiment in a line: EMSA; 100-750 ng YY1, 10 mM Mg2+; EMSA: 10 mM Tris pH 7.5, 50 mM KCl, 1 mM DTT, 10 mM MgCl2, 4 C, 30 min (poly d(I-C) with nuclear extract). As to conditions: protein: commercial; label: 5' biotin (both strands); blunt.

Chain of YY1 full-length recombinant (Active Motif 31332) (P25490 whole entry): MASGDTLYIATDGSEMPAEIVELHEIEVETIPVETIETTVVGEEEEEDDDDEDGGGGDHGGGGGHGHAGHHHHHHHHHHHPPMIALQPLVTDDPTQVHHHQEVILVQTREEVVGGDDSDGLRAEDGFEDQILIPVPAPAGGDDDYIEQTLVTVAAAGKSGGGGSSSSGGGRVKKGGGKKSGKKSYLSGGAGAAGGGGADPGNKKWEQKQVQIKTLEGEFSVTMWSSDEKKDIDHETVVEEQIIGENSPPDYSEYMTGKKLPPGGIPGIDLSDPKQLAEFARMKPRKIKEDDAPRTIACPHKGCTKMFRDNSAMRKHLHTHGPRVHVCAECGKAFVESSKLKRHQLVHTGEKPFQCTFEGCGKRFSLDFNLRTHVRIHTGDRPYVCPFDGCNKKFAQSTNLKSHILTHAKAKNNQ

B1: rs398206 A allele EMSA probe (dsDNA)
DNA 1: GTCCGTCCCAACATGGCGGGT
DNA 2: ACCCGCCATGTTGGGACGGAC
For B1, the binding result is reported as “binds”.
